Reference: US20250361296A1 (BIOCYTOGEN PHARMACEUTICALS BEIJING, published 2025)

Assays:
[1] = biological target: T1, hSIGLEC15 protein captured in the epitope analysis of Example 4 (human, UniProt Q6ZMC9 20-263, limits assumed); assay: BLI pairwise binning on captured hSIGLEC15, 200 nM each antibody; competitor 10C9
T1 sequence: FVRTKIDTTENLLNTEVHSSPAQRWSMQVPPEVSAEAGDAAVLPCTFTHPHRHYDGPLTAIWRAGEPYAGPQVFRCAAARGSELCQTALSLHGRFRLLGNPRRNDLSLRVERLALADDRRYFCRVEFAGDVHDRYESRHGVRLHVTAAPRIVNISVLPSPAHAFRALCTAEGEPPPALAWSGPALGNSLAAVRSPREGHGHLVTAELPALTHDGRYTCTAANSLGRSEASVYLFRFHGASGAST
Protocol: Relative positions of target protein epitope between a pair of purified anti-SIGLEC15 antibodies were analyzed by Biolayer Interferometry (BLI) using ForteBio Octet system at 30° C. A total of 4 purified antibodies were used: 5G12, 10A7, 10C9 and 23F4.
1×HBS-EP+ buffer (10 mM 4-(2-hydroxyethyl)-1-piperazineethanesulfonic acid (HEPES), 150 mM NaCl, 3 mM ethylenediaminetetraacetic acid (EDTA) and 0.05% P20, pH7.4) diluted from HBS-EP+ buffer (10×) was used as the running buffer throughout the experiment. About 100 RU of hSIGLEC15 protein was captured at a flow rate of 10 μL/min, and 200 nM of antibody was injected at a flow rate of 30 μL/min to bind the ligand. Another antibody was injected under the same conditions to determine whether the binding of different antibodies interfered with each other. The binding time was 300 s for each antibody.
The binding value of each antibody was obtained using Data Analysis HT 12.0. To quantify the interference of one antibody binding to another, a binding ratio was calculated to compare each pair of antibodies. The binding ratio is defined as the binding value of the second antibody (analyte 2), divided by the binding value of the first antibody (analyte 1). […] In general, antibody pairs that interfere with each other have the same or overlapping epitopes.

[2] = biological target: human SIGLEC6 on CHO-S-hSIGLEC6 cells (human, UniProt O43699 27-347); assay: flow cytometry, CHO-S cells expressing the target
Sequence of human SIGLEC6 on CHO-S-hSIGLEC6 cells (O43699 27-347): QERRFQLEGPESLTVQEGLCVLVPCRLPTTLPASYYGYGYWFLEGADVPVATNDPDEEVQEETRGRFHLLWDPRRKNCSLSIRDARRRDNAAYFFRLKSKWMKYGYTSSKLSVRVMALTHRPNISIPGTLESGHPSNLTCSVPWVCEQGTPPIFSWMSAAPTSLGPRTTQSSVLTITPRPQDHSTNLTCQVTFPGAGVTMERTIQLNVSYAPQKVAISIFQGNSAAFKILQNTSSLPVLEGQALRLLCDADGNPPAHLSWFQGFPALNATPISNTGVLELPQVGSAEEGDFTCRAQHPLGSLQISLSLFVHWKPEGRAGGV
Protocol: (§1) CHO-S-hSIGLEC15 cells, CHO-S-mSIGLEC15 cells, CHO-S-fasSIGLEC15 cells or CHO-S-dSIGLEC15 cells were transferred to a 96-well plate at a density of 5×10⁴ cells/well respectively. Serially diluted sample anti-SIGLEC15 antibodies were added to the 96-well plate, and incubated at 4° C. for 30 min. Then, the cells were incubated with the secondary antibody anti-hIgG-Fc-Alex Flour 647 (RL1-H) (Jackson ImmunoResearch Laboratories, Inc., 109-606-170) at 4° C. in the dark for 15 minutes before flow cytometry analysis.
(§2) Another similar experiment was performed to determine whether the anti-SIGLEC15 antibodies can bind with other SIGLEC family proteins. CHO-S-hSIGLEC1 cells (expressing hSIGLEC1, SEQ ID NO: 49)), CHO-S-hSIGLEC2 cells (expressing hSIGLEC2, SEQ ID NO: 50), CHO-S-hSIGLEC4 cells (expressing hSIGLEC4, SEQ ID NO: 51), CHO-S-hSIGLEC5 cells (expressing hSIGLEC5, SEQ ID NO: 52), CHO-S-hSIGLEC6 cells (expressing hSIGLEC6, SEQ ID NO: 53), CHO-S-hSIGLEC7 cells (expressing hSIGLEC7, SEQ ID NO: 54), CHO-S-hSIGLEC8 cells (expressing hSIGLEC8, SEQ ID NO: 55), CHO-S-hSIGLEC9 cells (expressing hSIGLEC9, SEQ ID NO: 56), CHO-S-hSIGLEC10 cells (expressing hSIGLEC10, SEQ ID NO: 57), CHO-S-hSIGLEC11 cells (expressing hSIGLEC11, SEQ ID NO: 58), CHO-S-hSIGLEC12 cells (expressing hSIGLEC12, SEQ ID NO: 59), CHO-S-hSIGLEC14 cells (expressing hSIGLEC14, SEQ ID NO: 60) or CHO-S-hSIGLEC16 cells (expressing hSIGLEC16, SEQ ID NO: 61) were used.

[3] = biological target: T2, human SIGLEC2 on CHO-S-hSIGLEC2 cells (human, UniProt P20273 20-687); assay: flow cytometry, CHO-S cells expressing the target
T2 sequence: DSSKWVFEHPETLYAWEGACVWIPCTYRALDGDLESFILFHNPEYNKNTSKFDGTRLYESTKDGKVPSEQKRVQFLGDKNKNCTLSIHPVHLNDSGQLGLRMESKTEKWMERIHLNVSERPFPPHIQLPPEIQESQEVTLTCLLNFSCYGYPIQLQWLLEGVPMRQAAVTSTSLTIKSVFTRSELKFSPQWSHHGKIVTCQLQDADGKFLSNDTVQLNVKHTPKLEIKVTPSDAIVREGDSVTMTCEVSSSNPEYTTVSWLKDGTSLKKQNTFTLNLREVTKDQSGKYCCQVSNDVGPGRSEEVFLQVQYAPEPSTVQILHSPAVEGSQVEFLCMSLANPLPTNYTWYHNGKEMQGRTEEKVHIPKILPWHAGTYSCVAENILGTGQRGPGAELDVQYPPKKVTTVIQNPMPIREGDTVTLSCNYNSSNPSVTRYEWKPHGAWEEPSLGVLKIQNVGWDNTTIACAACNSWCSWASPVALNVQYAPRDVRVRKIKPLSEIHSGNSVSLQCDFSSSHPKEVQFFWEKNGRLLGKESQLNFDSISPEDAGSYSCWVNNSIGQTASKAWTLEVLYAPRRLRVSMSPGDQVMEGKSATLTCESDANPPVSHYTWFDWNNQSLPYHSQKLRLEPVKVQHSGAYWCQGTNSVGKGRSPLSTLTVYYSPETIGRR
Protocol: as §1, §2

Binder	binding ratio [1]	Percentage of Positive Cells [2]	binding result [2]	Percentage of Positive Cells [3]	binding result [3]
anti-SIGLEC15 antibody 10A7 (antibody, human IgG1, V domains shown) VH: EVQLVQSGGGLVQPGGSLRLSCAASGFTFSNYEMNWVRQAPGKGLEWISYISNSGSTIYYADSVKGRFTISRDDAKNSLYLQMNSLRAEDTAVYYCAREDYDSSGYYWFDPWGQGTPVTVSS VL: DIQLTQSPSSVSASVGDRVTITCRASQGISSWLAWYQQKPGKAPKLLIYAASSLQSGVPSRFSGSGSGTDFTLTINSLQPEDFATYYCQQTNSFPLTFGGGTKVEIK	0.16	0.7%	no binding	0%	no binding
anti-SIGLEC15 antibody 10C9 (antibody, human IgG1, V domains shown) VH: QVQLVQSGAEVKKPGATVKVSCKASGYTFTNYGFSWVRQAPGQGLEWMGWINTYNDNTNYAQKFQGRVTMTTDTSTSTAYMELRSLRSDDTAVYYCARDGLWFGELPHYFDYWGQGTLVTVSS VL: DIQLTQSPLSSPVTLGQPASISCRSSQSLVNSDGETFLSWLQQRPGQPPRLLIYKISNRFSGVPDRFSGSGAGTDFTLKISRVEAEDVGVYYCMQATQFPHTFGQGTKLEIK	0.11	0.5%	no binding	0.3%	no binding
anti-SIGLEC15 antibody 23F4 (antibody, human IgG1, V domains shown) VH: QVQLQQWGAGLLKPSETLSLTCAVYGGSFSGYFWSWIRQPPGKGLEWIGEINHSGSTNYNPSLKSRVTLSVDTSKNQFSLKLSSVTAADTAVYYCAREGDSSSWGNWFDPWGQGTLVTVSS VL: EIVLTQSPGTLSLSPGERATLSCRASQSVSSSYLAWYQQKPGQAPRFLIYGASSRATGIPDRFSGSGSGTDFTLTISRLEPEDFAVYYCQQFGNSPLTFGGGTKVEIK	0.62	1.5%	no binding	1.8%	no binding
